What all share (experiment): purified protein
Substrate in series [1]: O=C(O)C[C@H](O)C(=O)O
Particulars: malate oxidation, co-substrate NAD+.

Substrate in series [2]: O=C(O)CC(=O)C(=O)O
In kind it is biochemical, Methylotuvimicrobium alcaliphilum. Particulars: oxaloacetate reduction, co-substrate NADH, pH 10, 30 °C.

Substrate in series [3]: NC(=O)C1=CN([C@@H]2O[C@H](COP(=O)(O)OP(=O)(O)OC[C@H]3O[C@@H](n4cnc5c(N)ncnc54)[C@H](O)[C@@H]3O)[C@@H](O)[C@H]2O)C=CC1
The series is classed as biochemical, Methylotuvimicrobium alcaliphilum. Particulars: oxaloacetate reduction, co-substrate oxaloacetate, pH 10, 30 °C, varied: cofactor.

Substrate in series [4]: NC(=O)c1ccc[n+]([C@@H]2O[C@H](COP(=O)(O)OP(=O)(O)OC[C@H]3O[C@@H](n4cnc5c(N)ncnc54)[C@H](O)[C@@H]3O)[C@@H](O)[C@H]2O)c1
In kind it is biochemical, Methylotuvimicrobium alcaliphilum. Particulars: malate oxidation, co-substrate malate, pH 10, 30 °C, varied: cofactor.

Substrate in series [5]: O=C(O)CC(=O)C(=O)O
In kind it is biochemical, Methylosinus trichosporium. The note with it: oxaloacetate reduction, co-substrate NADH, pH 9.5, 30 °C.

Substrate in series [6]: NC(=O)C1=CN([C@@H]2O[C@H](COP(=O)(O)OP(=O)(O)OC[C@H]3O[C@@H](n4cnc5c(N)ncnc54)[C@H](O)[C@@H]3O)[C@@H](O)[C@H]2O)C=CC1
The series is classed as biochemical, Methylosinus trichosporium. The note with it: oxaloacetate reduction, co-substrate oxaloacetate, pH 9.5, 30 °C, varied: cofactor.

Substrate in series [7]: NC(=O)c1ccc[n+]([C@@H]2O[C@H](COP(=O)(O)OP(=O)(O)OC[C@H]3O[C@@H](n4cnc5c(N)ncnc54)[C@H](O)[C@@H]3O)[C@@H](O)[C@H]2O)c1
The series is classed as biochemical, Methylosinus trichosporium. The note with it: malate oxidation, co-substrate malate, pH 9.5, 30 °C, varied: cofactor.

B1: MDH from M. alcaliphilum 20Z (MDH-20Z) (Methylotuvimicrobium alcaliphilum 20Z) (protein)
chain: MKTPVKIAVTGAAGQISYSLLFRLASGELLGPDQPMIFHLLETPQALALGALNGVVMELNDCAYPLLHKIVTTDDPDVAFKDVDYAFLIGASPRKPGMERKDLLAINAQIFSVQGQALSKVASRDVKVLVTGNPANTNALIAISNAPDLRPENFSAMMMLDHKRATFQLADKCGVLSNDIKNIIIWGNHSAGQYPDLHHAKVKGQDALSLVEWDWFVDKFIPTVQQRGAVVIQAVGRSSAASAANAALNLMRNWVFGTDEGNWISMAVPSDGSYGIEKDLVYSFPVEIKNGEISIVQGLEISDFSREKMRKSEAELKEEREAVKHLL
notes: full-length, C-terminal His6 (pET22b NdeI/XhoI), E. coli BL21 (DE3), Ni-NTA; homodimer 70 kDa
For orientation: Km means the concentration of substrate that gives half-maximal velocity. In general, kcat refers to the number of substrate molecules converted per active site and unit of time at saturation. For the protein B1, the Km is 110 ± 10 µM in series [1] (pH 10, 30 °C, pH 10.0); 340 ± 30 µM in series [2]; 25.2 ± 0.4 µM in series [3]; 450 ± 80 µM in series [4]. Further, the kcat in series [1] (pH 10, 30 °C, pH 10.0) was determined as 621 s⁻¹; in series [2], 870 s⁻¹.

B2: MDH from M. trichosporium OB3b (MDH-OB3b) (Methylosinus trichosporium OB3b) (protein)
chain: MARKKIALIGAGNIGGTLAHLIGLKELGDIVLFDIAAGVPQGKALDLAQSSPVSGFDATISGADDYSAIAGADVVIVTAGVPRQPGMSRDDLLSVNLGVVSKVGAGIKTYAPDAFVICITNPLDVMVWALQKCSGLPPAKVVGMAGVLDSARFRYFLAEELQVSVEDVSAFVLGGHGDDMVPSVRYSTVAGVPLPDLVGMGWITQAKIDAIVERTRKGGGEIVSLLKTGSAYYAPAASAIAMAESYLKDKRRVLPCAAHLSGQYGVSDLYVGVPVVIGANGVERIVEISLDSAERQMFDKSVASVRTLIAASKALDPSFA
notes: full-length, C-terminal His6 (pET22b NdeI/XhoI), E. coli BL21 (DE3), Ni-NTA; homotetramer 140 kDa; forward primer encodes (M)MARKKIA; LDH-like MDH, group III
On to B2, for which the Km in series [1] (pH 9.5, 30 °C, pH 9.5) stood at 1280 ± 170 µM; in series [5], 59 ± 7 µM; in series [6] it was 37.6 ± 4.6 µM; in series [7], 330 ± 40 µM. The catalytic constant (kcat) came out at 516 s⁻¹ in series [1] (pH 9.5, 30 °C, pH 9.5) and 1141 s⁻¹ in series [5].

(Values after PMC5023229, “Role of NAD^+-Dependent Malate Dehydrogenase in the Metabolism of Methylomicrobium alcaliphilum 20Z and Methylosinus trichosporium OB3b” (Microorganisms, 2015).)
